The values below come from patent US9512428B2, “Method of deriving mature hepatocytes from human embryonic stem cells” (Wisconsin Alumni Research Foundation, priority 2012, dated 2016).

“Also recorded” adds a separate entry of the source.

One data set concerns CYP1A2. Description: CYP1A2 induction by omeprazole in transduced hESC-derived hepatocytes (quantitative PCR). The data set is classed as in vitro ADME, human. On the procedure: Induction of this enzyme was also measured in HepG2 human hepatocytes and in fresh primary human hepatocytes. Expression was measured by quantitative PCR, and the expression levels are shown as GAPDH normalized gene expression values (RQ values or relative quantity values. Error bars indicate RQ min and RQ max values).
(RQ values or relative quantity values. Error bars indicate RQ min and RQ max values).
Omeprazole and rifampicin (also known as rifampin; Sigma) were added to DMEM at 100 μM and 10 μM respectively for 3 days. The resulting medium was analyzed by mass spectrometry. Metabolites of the tested drugs, omeprazole sulfone (Santa Cruz Biotechnology), 5-hydroxy omeprazole (Cachesyn), and desacetyl rifampicin (Santa Cruz Biotechnology) were dissolved in DMEM to prepare standard curves.

Data set [1] concerns hESC derived hepatocytes. The data set is described as follows: Rifampin metabolism to 25-des acetyl rifampin in hESC derived hepatocytes (LC-MS/MS). Conditions: hESC derived hepatocytes co-transduced with let-7c and mir-122, 72 hours incubation.
The test system of data set [2] is hES cell-derived fetal hepatocytes. The data set is described as follows: QPCR of liver genes in hES cell-derived fetal hepatocytes after lentiviral transduction of mir-122. In kind it is cell-based, human. An excerpt:
We next determined whether forced expression of mir-122 in the hES cell-derived fetal hepatocytes could program these cells to a more mature differentiated state. We expressed mir-122 in the fetal hepatocytes by lentiviral transduction. Using this method, we achieved ˜5% transduction efficiency (see FIG. 2 GFP positive cells).
These GFP positive cells were then FACS sorted, and RNA was isolated for QPCR measurements of functional genes.
H1 hES cells (J. A. Thomson et al., Science (1998) 282: 1145-1147) cultured in E8 medium (Chen et al., 2011 Nature Methods 8(5) 424-9) were differentiated to fetal hepatocytes lacking functional hepatic enzyme activity following a previously published protocol (see J. Cai et al., Hepatology (2007) 45: 1229-1239), with some modifications. Briefly, the hES cells at approximately 50% confluency were treated with 0.5 mg/ml Albumin fraction V (Sigma) and 100 ng/ml Activin A (Sigma) for 3 days. On the second day of treatment, 0.1% Insulin-transferrin-Selenium (Sigma) was added, and on the third day of treatment, 1.0% Insulin-transferrin-Selenium (Sigma) was added. From day four to day eight, the cells were treated with 30 ng/ml FGF4 (R&D Systems) along with 20 ng/ml BMP2. From days nine through thirteen, 20 ng/ml HGF (R&D Systems) were added to the medium, and finally, the cells were treated for five days with 10 ng/ml Oncostatin M (R&D Systems) and 0.1 μM Dexamethasone (Sigma). Throughout differentiation, hepatocyte growth medium (Promocell) was used as a base medium and cells were kept on Matrigel™ coated plates. […] hepatocytes were obtained for comparison studies (Celsis).
Mir-122 was transduced into the hES derived cells having hepatocyte morphology by a lentiviral vector pEZX-MR01 (Genecoepoeia). Approximately ˜5% of cells were transduced, as measured by GFP expression.
In this example, we performed a QRT PCR comparison of the gene expression levels of the mature hepatocytes produced from human embryonic stem cells according to the procedure outlined in Example 1 (ES hepatocyte expressing mir-122), the expression levels for the same proteins in human primary hepatocytes (Human hepatocyte), the expression levels for the same proteins in the fetal hepatocytes before transduction (ES hepatocyte), and the expression levels for the same proteins in HepG2 cells.

The test system of data set [3] is primary human hepatocytes. Description: Functional gene expression over time in primary human hepatocytes transduced with mir-122 (QPCR). The data set is classed as cell-based. On the procedure: FIGS. 6A through 6E are a bar graphs showing that lentivirus mediated DNA transfer to primary hepatocytes derived directly from liver tissue results in improved hepatic protein expression over time, as compared to control primary hepatocytes. Expression is shown for albumin (FIG. 6A), tyrosine aminotransferase (TAT) (FIG. 6B), and the CYP 450 enzymes CYP1A2 (FIG. 6C), CYP3A4 (FIG. 6D) and CYP7A1 (FIG. 6E). Expression was measured by quantitative PCR, and the reported values were normalized by GAPDH expression (RQ or relative quantity values, error bars representing standard error, RQ min and RQ max). Expression values are shown for each gene at the time the culture was established (0 day) and 9, 13 or 19 days later.
We cultured primary human hepatocytes (both control hepatocytes and hepatocytes into which vectors were transferred to express mir-122). Mir-122 was transduced into these primary hepatocytes using the lentiviral vector PEZX-MR01. GFP expressing cells were FACS sorted before RNA isolation and gene expression measurements using QPCR.

In another data set the test system is hepatitis B virus (HBV). Description: HBV infection and replication in transduced hESC-derived hepatocytes (viral genome QPCR). The data set is classed as cell-based. On the procedure:
FIG. 8 is a bar graph showing that HBV infects and replicates in human embryonic stem cell-derived hepatocytes. Number of copies of the HBV genome is reported for human embryonic stem cell-derived hepatocytes transduced with mir-122 infected with HBV (es heps with miRNA), positive control (human heps), and negative controls (hepg2). The copy numbers were calculated by QPCR. QPCR standard curve was prepared by serial dilution of LJ144, a construct that contains the whole viral genome. Both LJ144 and QPCR primers were disclosed by Watanabe et al. (PNAS 2007 104 (24)).
The copy numbers were calculated by QPCR. QPCR standard curve was prepared by serial dilution of LJ144, a construct that contains the whole viral genome. Both LJ144 and QPCR primers were disclosed by Watanabe et al. (PNAS 2007 104 (24)). […]
Infected cells were lysed at 6 days post-infection and treated with micrococcal nuclease. […] QPCR was performed to quantify the viral genomes present in the isolated DNA using the QPCR primers disclosed by Watanabe et al. (PNAS 2007 104 (24)). […]
Infectious HBV virions were concentrated from media of HepAD38 cells (Ladner et al. 1997) by PEG 8000 precipitation followed by centrifugation. […] Viral genome copy numbers were quantified by QPCR using primers previously published (see Watanabe et al. 2007). […]

The test system of data set [4] is hESC derived hepatocytes. Description: QPCR of liver genes in hESC derived hepatocytes transduced with let-7c alone or with mir-122. In kind it is cell-based, human. The following applies: GAPDH normalized, versus non-transduced hESC derived hepatocytes. The protocol: Expression of albumin was also measured in HepG2, a human hepatoma cell line (hepg2). Expression was measured by quantitative PCR. Indicated expression levels (on the Y axis) are GAPDH normalized gene expression values called RQ values (relative quantity values), with HepG2 expression assigned a relative value of 1. Error bars indicate RQ min and RQ max values calculated on 1 standard deviation. All RQ, RQ min and RQ max values were calculated with ViiA7 software on Applied Biosystems QPCR system.
Expression of CYP7A1 was also measured in HepG2, a human hepatoma cell line (hepg2). Expression was measured by quantitative PCR. Indicated expression levels (on the Y axis) are GAPDH normalized gene expression values called RQ values (relative quantity values), with HepG2 expression assigned a relative value of 1. Error bars indicate RQ min and RQ max values calculated on 1 standard deviation. All RQ, RQ min and RQ max values were calculated with ViiA7 software on Applied Biosystems QPCR system.
Expression of CYP3A4 was also measured in HepG2, a human hepatoma cell line (hepg2). Expression was measured by quantitative PCR. Indicated expression levels (on the Y axis) are GAPDH normalized gene expression values called RQ values (relative quantity values), with HepG2 expression assigned a relative value of 1. Error bars indicate RQ min and RQ max values calculated on 1 standard deviation. All RQ, RQ min and RQ max values were calculated with ViiA7 software on Applied Biosystems QPCR system.
Expression of AFP was also measured in HepG2, a human hepatoma cell line (hepg2). Expression was measured by quantitative PCR. Indicated expression levels (on the Y axis) are GAPDH normalized gene expression values called RQ values (relative quantity values), with HepG2 expression assigned a relative value of 1. Error bars indicate RQ min and RQ max values calculated on 1 standard deviation. All RQ, RQ min and RQ max values were calculated with ViiA7 software on Applied Biosystems QPCR system.
Expression of AFP was also measured in HepG2, a human hepatoma cell line (hepg2). Expression was measured by quantitative PCR.

On to `COc1ccc2[nH]c([S+]([O-])Cc3ncc(C)c(OC)c3C)nc2c1` (centres unmarked) [omeprazole], for which the “induction of CYP1A2 upon drug challenge” value in the data set with CYP1A2 (hESC-derived hepatocytes transduced with both mir-122 and let-7c, versus non-drug treated (ND) cells) is “strongly induced; also recorded: induced the expression”; in the data set on CYP1A2 (hESC-derived hepatocytes with let-7c alone, no concurrent mir-122), “did not elicit induction”. In addition, the “expression of CYP1A2 upon addition of drug” value with CYP1A2 (mir-122 transduced hES cell-derived hepatocytes, 100 μM for 3 days) is listed as “substantially up-regulated”.

Turning to `CO[C@H]1/C=C/O[C@@]2(C)Oc3c(C)c(O)c4c(O)c(c(/C=N/N5CCN(C)CC5)c(O)c4c3C2=O)NC(=O)/C(C)=C\C=C\[C@H](C)[C@H](O)[C@@H](C)[C@@H](O)[C@@H](C)[C@H](OC(C)=O)[C@@H]1C` [rifampicin], the “efficiency of metabolism to 25-des acetyl rifampin” value in the data set with hESC derived hepatocytes [1] is given as “comparable to primary human hepatocytes”.

B1: mir-122: human microRNA mir-122 (pre-miRNA SEQ ID NO:1, mature SEQ ID NO:2); coding DNA transferred by lentiviral vector (nucleic acid, listed as Homo sapiens)
chain 1: CCUUAGCAGAGCUGUGGAGUGUGACAAUGGUGUUUGUGUCUAAACUAUCAAACGCCAUUAUCACACUAAAUAGCUACUGCUAGGC
chain 2: UGGAGUGUGACAAUGGUGUUUG
In the case of B1, the “expression of functional genes (quantitative PCR)” value in data set [2] (GFP positive FACS sorted hES cell-derived hepatocytes expressing miR-122) is given as “significant up-regulation”. Moreover, the “expression of functional genes (alb, tat, CYP1A2, CYP7A1, CYP3A4, aat) compared with primary hepatocytes” value in data set [2] (QRT PCR, transduced mature hepatocytes versus human primary hepatocytes) is “equal or greater expression than in primary hepatocytes”. The same molecule had a transduction efficiency in data set [2] (lentiviral transduction, GFP positive cells) of around 5%. For the same molecule, the alpha-feto protein expression entry in data set [2] (mir-122 expressing hESC-derived hepatocytes) is on record as “not down-regulated”. In addition, the “CYP gene expression compared with fresh hepatocytes (day 0)” value in data set [3] (mir-122 expressing primary hepatocytes in culture) is given as “equal or greater amount”. Moreover, the “mRNA levels of functional genes that decreased in control culture” value in data set [3] (primary hepatocytes cultured 9 days or more, overexpressing mir-122) is listed as “regained their expression”. In the data set with hepatitis B virus (HBV) (mir-122 transduced hESC-derived hepatocytes, 6 days post-infection), the “HBV genomes present per well” value is on record as “presence of HBV genomes”.

B2: let-7c: human microRNA let-7c (pre-miRNA SEQ ID NO:3, mature SEQ ID NO:4); coding DNA transferred by lentiviral vector pEZX-MR03 (nucleic acid, listed as Homo sapiens)
chain 1: GCAUCCGGGUUGAGGUAGUAGGUUGUAUGGUUUAGAGUUACACCCUGGGAGUUAACUGUACAACCUUCUAGCUUUCCUUGGAGC
chain 2: UGAGGUAGUAGGUUGUAUGGUU
As to B2, the “productive infection by HBV (relative number of copies of the HBV genome)” value in the data set on hepatitis B virus (HBV) (transduced versus non-transduced hESC-derived hepatocytes, seventh day after infection) is reported as “significantly down-regulated”. For the same molecule, in the data set with hESC derived hepatocytes [4], the “AFP (alpha-feto protein) expression” value was “down-regulated”, the CYP1A2 expression entry was “up-regulated”, the CYP3A4 expression result is reported as “up-regulated” and the CYP7A1 expression result is reported as “up-regulated”. For the same molecule, in the data set with hESC derived hepatocytes [4], the albumin expression entry was “up-regulated”.
